The text below walks through data of US20190212291.

In data set [1] the test system is PEG-T38-Q.
The subject of data set [2] is PEG-T2-Q.
Data set [3] deals with PEG-T48-Q.
For data set [4], the system named is T1, PB2.
T1 sequence: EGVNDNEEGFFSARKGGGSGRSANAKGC

Data set [5] concerns T2, PEG-T39-Q.
T2 sequence: GGGSGRSANAKGKGC

Data set [6] deals with PEG-T51-Q.
Data set [7] has as its system PEG-T58-Q.
The subject of data set [8] is PEG-T7-Q.
Data set [9] has as its system PEG-T1-Q.
In data set [10] the test system is PEG-T3-Q.
The test system of data set [11] is PEG-T54-Q.
In data set [12] the test system is SB14.
The test system of data set [13] is PEG-T24-Q.
The test system of data set [14] is PEG-T56-Q.
Data set [15] relates to PEG-T43-Q.

MMP9, sequence (chain, as listed by the source): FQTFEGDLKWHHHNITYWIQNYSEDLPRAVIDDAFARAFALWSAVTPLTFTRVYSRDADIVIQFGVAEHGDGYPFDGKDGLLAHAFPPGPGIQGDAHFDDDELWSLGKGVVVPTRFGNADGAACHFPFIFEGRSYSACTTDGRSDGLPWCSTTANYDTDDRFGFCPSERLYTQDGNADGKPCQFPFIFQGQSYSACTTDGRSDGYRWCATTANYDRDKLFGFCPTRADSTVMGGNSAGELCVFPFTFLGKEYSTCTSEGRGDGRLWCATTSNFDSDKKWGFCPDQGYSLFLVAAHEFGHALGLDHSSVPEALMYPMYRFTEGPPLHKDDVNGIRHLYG
MMP3, sequence (chain, as listed by the source): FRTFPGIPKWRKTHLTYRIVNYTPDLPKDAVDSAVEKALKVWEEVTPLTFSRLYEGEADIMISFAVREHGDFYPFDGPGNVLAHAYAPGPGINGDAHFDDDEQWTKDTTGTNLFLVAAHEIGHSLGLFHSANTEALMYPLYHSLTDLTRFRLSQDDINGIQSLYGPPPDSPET
HPN, sequence (chain, as listed by the source): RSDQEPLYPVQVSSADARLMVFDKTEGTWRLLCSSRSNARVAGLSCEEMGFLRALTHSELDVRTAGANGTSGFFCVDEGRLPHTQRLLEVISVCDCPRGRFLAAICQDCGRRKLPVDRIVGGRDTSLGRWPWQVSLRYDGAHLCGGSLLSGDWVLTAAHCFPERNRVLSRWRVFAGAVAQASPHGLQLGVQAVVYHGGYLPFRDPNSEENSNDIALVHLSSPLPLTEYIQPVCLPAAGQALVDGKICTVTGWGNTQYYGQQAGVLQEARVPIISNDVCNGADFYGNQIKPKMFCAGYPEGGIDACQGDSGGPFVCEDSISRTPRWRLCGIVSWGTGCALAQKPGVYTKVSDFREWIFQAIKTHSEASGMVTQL
MMP10, sequence (chain, as listed by the source): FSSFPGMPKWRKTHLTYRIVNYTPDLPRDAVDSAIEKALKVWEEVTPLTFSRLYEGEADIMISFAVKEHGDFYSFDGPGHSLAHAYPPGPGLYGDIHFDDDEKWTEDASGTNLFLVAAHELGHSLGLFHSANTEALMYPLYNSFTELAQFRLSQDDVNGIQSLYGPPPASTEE

Consider KLK2, for which the “Top hit (cleavage of PEG-coupled FRET substrate by recombinant proteases)” value (shortened to “Top hit”) in data set [1] and in data set [2] was “KLK2” in each case. Moreover, the “Second hit (cleavage of PEG-coupled FRET substrate by recombinant proteases)” value (“Second hit” for short) in data set [3] is “KLK2”.
As for uPA, the substrate cleavage assay entry in data set [4] was “uPA substrate, expressed by PC3”. Further, in data set [5], the “Top hit” value is listed as “uPA”; the substrate cleavage result is “selectively cleaved by MMP13 and uPA”; the “substrate cleavage in vitro” value was “in vitro, these substrates are cleaved by proteases overexpressed in PC3 cells, MMP13 and uPA”.
As for KLK3, the “Second hit” value in data set [6] and in data set [2] was “KLK3” each time.
On to HPN, for which the “Top hit” value in data set [7] and in [3] was “HPN” throughout.
As for MMP9, the “Top hit” value in data set [8], in data set [9] and in [10] was “MMP9” throughout.
With MMP13, the “Second hit” value in [11] was “MMP13”. Besides, the substrate cleavage assay entry in [12] is recorded as “MMP13 substrate, expressed by PC3”. For the same substance, in data set [13], the “Top hit” value is “MMP13”; the substrate cleavage result was “selectively cleaved by MMP13 and uPA”; the “substrate cleavage in vitro” value is “in vitro, these substrates are cleaved by proteases overexpressed in PC3 cells, MMP13 and uPA”.
For the substance MMP3, the “Second hit” value in data set [14] was “MMP3”. Moreover, the “Top hit” value in data set [15] was “MMP3”.
As to MMP10, the “Top hit” value in data set [14] is on record as “MMP10”.
